Source: the Immune Epitope Database (IEDB)
One block for each sequence: values may come before it.

Legend:
HLA-B*08:02 = test: IEDB peptide-MHC binding, purified MHC/direct/fluorescence; filed as Kd, often an IC50 or EC50 that approximates it; ≥ and ≤ were set here for values at or beyond the usual limits of such assays
HLA-B*07:02 = test: IEDB peptide-MHC binding, purified MHC/competitive/fluorescence; ≥ and ≤ were set here for values at or beyond the usual limits of such assays
HLA-A*01:01 = test: IEDB peptide-MHC binding, purified MHC/direct/fluorescence; filed as Kd, often an IC50 or EC50 that approximates it; ≥ and ≤ were set here for values at or beyond the usual limits of such assays; conditions: source organism: West Nile virus
HLA-B*40:01 = test: as above; conditions: source organism: West Nile virus
HLA-B*58:01 = test: as above; conditions: source organism: West Nile virus
HLA-A*03:01 [1] = test: as above
HLA-B*08:01 = test: as above
HLA-A*29:02 = test: as above
HLA-B*18:01 [2] = test: as above; conditions: source organism: West Nile virus
HLA-A*02:01 [3] = test: as above; conditions: source organism: West Nile virus
HLA-B*51:01 [4] = test: as above; conditions: source organism: West Nile virus
HLA-A*69:01 [5] = test: as above; conditions: source organism: West Nile virus
HLA-B*15:01 [6] = test: as above; conditions: source organism: West Nile virus
HLA-A*31:01 = test: as above; conditions: source organism: West Nile virus
HLA-B*44:02 = test: as above; conditions: source organism: West Nile virus
HLA-B*27:05 = test: as above; conditions: source organism: West Nile virus
HLA-B*46:01 [7] = test: as above; conditions: source organism: West Nile virus
HLA-A*11:01 [8] = test: as above; conditions: source organism: West Nile virus
HLA-A*23:01 = test: as above; conditions: source organism: Entamoeba histolytica HM-1:IMSS
HLA-A*24:03 = test: as above
HLA-A*02:01 [9] = test: IEDB peptide-MHC binding, purified MHC/competitive/fluorescence; ≥ and ≤ were set here for values at or beyond the usual limits of such assays
HLA-A*24:02 = test: as above
HLA-B*15:01 [10] = test: as above
HLA-A*02:01 [11] = test: IEDB peptide-MHC binding, purified MHC/competitive/fluorescence; filed as Kd, often an IC50 or EC50 that approximates it; ≥ and ≤ were set here for values at or beyond the usual limits of such assays
HLA-A*02:12 = test: IEDB peptide-MHC binding, purified MHC/direct/fluorescence; filed as Kd, often an IC50 or EC50 that approximates it; ≥ and ≤ were set here for values at or beyond the usual limits of such assays
HLA-A*02:16 = test: as above
HLA-A*02:19 = test: as above
HLA-A*02:03 = test: as above
HLA-A*68:02 = test: as above
HLA-A*02:11 = test: as above
HLA-B*15:17 = test: IEDB peptide-MHC binding, purified MHC/competitive/fluorescence; filed as Kd, often an IC50 or EC50 that approximates it; ≥ and ≤ were set here for values at or beyond the usual limits of such assays; conditions: source organism: Zaire ebolavirus
HLA-B*39:01 = test: as above; conditions: source organism: Zaire ebolavirus
HLA-A*26:01 = test: as above; conditions: source organism: Zaire ebolavirus
HLA-B*57:01 = test: as above; conditions: source organism: Zaire ebolavirus
HLA-B*18:01 [12] = test: as above; conditions: source organism: Zaire ebolavirus
HLA-B*27:03 = test: as above; conditions: source organism: Zaire ebolavirus
HLA-B*51:01 [13] = test: as above; conditions: source organism: Zaire ebolavirus
HLA-A*69:01 [14] = test: as above; conditions: source organism: Zaire ebolavirus
HLA-B*15:01 [15] = test: as above; conditions: source organism: Zaire ebolavirus
HLA-B*46:01 [16] = test: as above; conditions: source organism: Zaire ebolavirus
HLA-A*03:01 [17] = test: IEDB peptide-MHC binding, purified MHC/competitive/fluorescence; ≥ and ≤ were set here for values at or beyond the usual limits of such assays; conditions: source organism: Vaccinia virus Copenhagen
HLA-A*11:01 [18] = test: as above; conditions: source organism: Vaccinia virus Copenhagen
[19] = source organism: West Nile virus
[20] = source organism: Zaire ebolavirus
[21] = source organism: Sudan ebolavirus
[22] = source organism: Giardia lamblia ATCC 50803
[23] = source organism: Ebola virus Yambio0403
[24] = source organism: Vaccinia virus Copenhagen

Sequence: MLKRRGFHL
Kd (HLA-B*08:02; source organism: Salmonella enterica subsp. enterica serovar Typhi str. CT18): 0.102 µM

IC50 (HLA-B*07:02; source organism: Homo sapiens): 0.166 µM
Sequence: GPRGALSLL

Sequence: HSRRSRRSL
Kd (HLA-A*01:01): ≥ 20 µM
Kd (HLA-B*40:01): ≥ 20 µM
Kd (HLA-B*58:01): ≥ 20 µM
Kd (HLA-B*08:02; source organism: West Nile virus strain PTRoxo): 5.67 µM
Kd (HLA-A*03:01 [1]; [19]): ≥ 20 µM
Kd (HLA-B*08:01; [19]): 0.211 µM
Kd (HLA-A*29:02; [19]): ≥ 20 µM
Kd (HLA-B*18:01 [2]): ≥ 20 µM
Kd (HLA-A*02:01 [3]): ≥ 20 µM
Kd (HLA-B*51:01 [4]): ≥ 20 µM
Kd (HLA-A*69:01 [5]): ≥ 20 µM
Kd (HLA-B*15:01 [6]): ≥ 20 µM
Kd (HLA-A*31:01): ≥ 20 µM
Kd (HLA-B*44:02): ≥ 20 µM
Kd (HLA-B*27:05): ≥ 20 µM
Kd (HLA-B*46:01 [7]): ≥ 20 µM
Kd (HLA-A*11:01 [8]): ≥ 20 µM

Sequence: QYIHLLCNK
Kd (HLA-A*23:01): 0.2 µM
Kd (HLA-A*24:03; source organism: Entamoeba histolytica HM-1:IMSS): 1.11 µM

Sequence: IPYFGPAAE
IC50 (HLA-B*07:02; [20]): ≥ 135 µM

Sequence: QLKSVGLNL
IC50 (HLA-B*07:02; [21]): 6.4 µM
IC50 (HLA-A*02:01 [9]; [21]): 7.56 µM
IC50 (HLA-A*24:02; [21]): 24.5 µM
IC50 (HLA-B*15:01 [10]; [21]): 14.4 µM

Sequence: ELRKRNEAL
Kd (HLA-B*08:02; [22]): 2.82 µM
Kd (HLA-B*08:01; [22]): 0.042 µM
Kd (HLA-A*02:01 [11]; [22]): ≥ 20 µM

Sequence: RYEFTAPFI
Kd (HLA-A*02:12; [23]): ≥ 20 µM
Kd (HLA-A*03:01 [1]; [23]): ≥ 20 µM
Kd (HLA-A*29:02; [23]): ≥ 20 µM
Kd (HLA-A*02:16; [23]): ≥ 20 µM
Kd (HLA-A*02:19; [23]): ≥ 20 µM
Kd (HLA-A*02:03; [23]): ≥ 20 µM
Kd (HLA-A*68:02; [23]): ≥ 20 µM
Kd (HLA-A*24:03; [20]): 0.0002 µM
Kd (HLA-A*02:11; [23]): ≥ 20 µM
Kd (HLA-B*15:17): ≥ 20 µM
Kd (HLA-B*39:01): ≥ 20 µM
Kd (HLA-A*26:01): ≥ 20 µM
Kd (HLA-B*57:01): ≥ 20 µM
Kd (HLA-B*18:01 [12]): ≥ 20 µM
Kd (HLA-A*02:01 [11]; [20]): ≥ 20 µM
Kd (HLA-B*27:03): ≥ 20 µM
Kd (HLA-B*51:01 [13]): ≥ 20 µM
Kd (HLA-A*69:01 [14]): ≥ 20 µM
Kd (HLA-B*15:01 [15]): ≥ 20 µM
Kd (HLA-B*46:01 [16]): ≥ 20 µM

Sequence: KPGPDNSTH
IC50 (HLA-B*07:02; [20]): ≥ 191 µM

Sequence: LPKTSGHYD
IC50 (HLA-B*07:02; [20]): ≥ 182 µM

Sequence: TPTVAPPAP
IC50 (HLA-B*07:02; [20]): ≥ 145 µM

Sequence: KITFALKKL
IC50 (HLA-A*03:01 [17]): 11.3 µM
IC50 (HLA-B*07:02; [24]): 61.2 µM
IC50 (HLA-A*24:02; [24]): 34.8 µM
IC50 (HLA-A*11:01 [18]): 19.3 µM

Sequence: NYNGLLSSI
Kd (HLA-A*02:12; [20]): ≥ 20 µM
Kd (HLA-A*03:01 [1]; [20]): ≥ 20 µM
Kd (HLA-A*02:16; [20]): ≥ 20 µM
Kd (HLA-A*02:19; [20]): ≥ 20 µM
Kd (HLA-A*02:03; [20]): ≥ 20 µM
Kd (HLA-A*68:02; [20]): ≥ 20 µM
Kd (HLA-A*24:03; source organism: Ebola virus - Gabon (1994-1997)): 0.0003 µM
Kd (HLA-A*02:11; [20]): ≥ 20 µM
Kd (HLA-B*15:17): ≥ 20 µM
Kd (HLA-B*39:01): ≥ 20 µM
Kd (HLA-A*26:01): ≥ 20 µM
Kd (HLA-B*57:01): ≥ 20 µM
Kd (HLA-B*18:01 [12]): ≥ 20 µM
Kd (HLA-A*02:01 [11]; [20]): ≥ 20 µM
Kd (HLA-B*27:03): ≥ 20 µM
Kd (HLA-B*51:01 [13]): ≥ 20 µM
Kd (HLA-A*69:01 [14]): ≥ 20 µM
Kd (HLA-B*15:01 [15]): ≥ 20 µM
Kd (HLA-B*46:01 [16]): ≥ 20 µM

Sequence: QFLSFASLF
Kd (HLA-A*02:12; [20]): ≥ 20 µM
Kd (HLA-A*03:01 [1]; [20]): ≥ 20 µM
Kd (HLA-A*02:16; [20]): ≥ 20 µM
Kd (HLA-A*02:19; [20]): ≥ 20 µM
Kd (HLA-A*02:03; [20]): ≥ 20 µM
Kd (HLA-A*68:02; [20]): ≥ 20 µM
Kd (HLA-A*24:03; source organism: Reston ebolavirus): 0.0027 µM
Kd (HLA-A*02:11; [20]): ≥ 20 µM
IC50 (HLA-A*02:01 [9]; [20]): ≥ 88.1 µM
IC50 (HLA-A*24:02; [20]): 0.0128 µM
IC50 (HLA-B*15:01 [10]; [20]): 9.93 µM
Kd (HLA-B*15:17): ≥ 20 µM
Kd (HLA-B*39:01): ≥ 20 µM
Kd (HLA-A*26:01): ≥ 20 µM
Kd (HLA-B*57:01): ≥ 20 µM
Kd (HLA-B*18:01 [12]): ≥ 20 µM
Kd (HLA-A*02:01 [11]; [20]): ≥ 20 µM
Kd (HLA-B*27:03): ≥ 20 µM
Kd (HLA-B*51:01 [13]): ≥ 20 µM
Kd (HLA-A*69:01 [14]): ≥ 20 µM
Kd (HLA-B*46:01 [16]): ≥ 20 µM

Sequence: AAPDGIRGF
IC50 (HLA-B*07:02; [20]): 12.2 µM
IC50 (HLA-A*24:02; [20]): 69.8 µM
